In US20220380407A1 (WASHINGTON UNIVERSITY, published 2022):
Where two headings read alike, the source gives them in different places. Positions of bridges follow the written chain, without caps; N, C: chain ends. *: point of attachment. X2 = 1‑(ethylsulfonyl)piperidin‑4‑yl carbamate, CCS(=O)(=O)N1CCC(OC(=O)*)CC1; kbt = C-terminal Arg ketobenzothiazole

T1: matriptase (#3946-SE-010, R&D Systems) (UniProt Q9Y5Y6 615-855)
T1 sequence (looked up): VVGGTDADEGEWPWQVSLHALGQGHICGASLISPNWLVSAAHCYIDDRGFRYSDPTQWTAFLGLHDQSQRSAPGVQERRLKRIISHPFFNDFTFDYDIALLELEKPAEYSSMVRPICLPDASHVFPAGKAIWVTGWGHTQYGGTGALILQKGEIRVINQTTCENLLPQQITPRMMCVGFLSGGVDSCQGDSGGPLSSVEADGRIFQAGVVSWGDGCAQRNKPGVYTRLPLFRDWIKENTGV

T2: recombinant N-terminal His-tag HGFA serine protease domain (UniProt Q04756 373-655)
T2 sequence (looked up): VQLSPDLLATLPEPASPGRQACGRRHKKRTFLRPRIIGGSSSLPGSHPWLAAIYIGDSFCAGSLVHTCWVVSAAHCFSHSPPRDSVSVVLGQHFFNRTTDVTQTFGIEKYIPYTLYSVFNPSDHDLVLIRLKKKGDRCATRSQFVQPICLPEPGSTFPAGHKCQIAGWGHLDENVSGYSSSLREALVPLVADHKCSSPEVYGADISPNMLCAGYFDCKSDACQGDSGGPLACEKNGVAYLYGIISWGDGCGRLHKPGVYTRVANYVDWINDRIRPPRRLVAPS

T3: KLK5 (#1108-SE-010, R&D Systems) (UniProt Q9Y337 23-293, limits assumed)
T3 sequence (looked up): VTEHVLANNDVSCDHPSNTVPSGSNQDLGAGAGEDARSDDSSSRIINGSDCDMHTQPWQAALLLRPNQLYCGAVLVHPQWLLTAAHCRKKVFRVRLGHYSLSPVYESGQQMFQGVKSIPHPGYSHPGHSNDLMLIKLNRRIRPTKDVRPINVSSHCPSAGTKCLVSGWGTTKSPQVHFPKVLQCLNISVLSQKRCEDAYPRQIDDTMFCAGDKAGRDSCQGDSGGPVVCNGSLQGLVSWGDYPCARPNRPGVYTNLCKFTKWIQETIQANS

B1: Cyclo(DLK)R-kbt, VD2173 (peptide)
peptide: Ac-DLKR-kbt
modifications: lactam 1-3; not fully specified; printed as Cyclo(DLK)R-kbt; also: N-terminal acetyl described as 6-acetamido

Tests used:
Assay in all cases: cell-based or functional assay
human TMPRSS2 [1] = target: T4, human TMPRSS2 (human, UniProt O15393 1-492)
T4 sequence (O15393 whole entry): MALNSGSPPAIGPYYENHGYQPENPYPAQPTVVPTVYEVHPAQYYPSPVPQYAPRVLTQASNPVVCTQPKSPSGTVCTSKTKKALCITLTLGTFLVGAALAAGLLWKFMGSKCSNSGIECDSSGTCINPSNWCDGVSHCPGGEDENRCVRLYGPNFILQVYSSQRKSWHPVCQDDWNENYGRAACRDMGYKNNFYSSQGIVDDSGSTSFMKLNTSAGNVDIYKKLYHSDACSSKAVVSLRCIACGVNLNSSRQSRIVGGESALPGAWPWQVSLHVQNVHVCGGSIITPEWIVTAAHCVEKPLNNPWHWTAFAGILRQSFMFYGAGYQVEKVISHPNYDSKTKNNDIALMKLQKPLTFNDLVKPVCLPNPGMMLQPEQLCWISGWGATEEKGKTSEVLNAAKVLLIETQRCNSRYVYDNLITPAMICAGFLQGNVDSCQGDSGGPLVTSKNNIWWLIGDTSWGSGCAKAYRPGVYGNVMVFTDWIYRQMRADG

[2] = target: T1, matriptase (#3946-SE-010, R&D Systems)
[3] = target: T5, activated hepsin (#4776-SE-010, R&D Systems) (UniProt P05981 45-417, limits assumed)
T5 sequence (P05981 45-417 limits assumed): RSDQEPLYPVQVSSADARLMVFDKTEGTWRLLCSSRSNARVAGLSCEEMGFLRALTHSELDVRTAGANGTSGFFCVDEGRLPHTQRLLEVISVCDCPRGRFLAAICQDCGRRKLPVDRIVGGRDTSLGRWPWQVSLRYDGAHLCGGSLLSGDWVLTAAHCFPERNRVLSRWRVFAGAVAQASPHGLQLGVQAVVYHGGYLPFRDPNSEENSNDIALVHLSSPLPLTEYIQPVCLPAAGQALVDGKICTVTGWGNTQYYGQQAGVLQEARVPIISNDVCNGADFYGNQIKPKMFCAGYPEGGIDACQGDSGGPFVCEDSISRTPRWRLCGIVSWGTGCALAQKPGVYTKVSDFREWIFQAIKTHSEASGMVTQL

[4] = target: T2, recombinant N-terminal His-tag HGFA …
[5] = target: T3, KLK5 (#1108-SE-010, R&D Systems)
human TMPRSS2 [6] = target: T4, human TMPRSS2; remark: listed apart in the source
[7] = target: T1, matriptase (#3946-SE-010, R&D Systems); remark: listed apart in the source
[8] = target: T6, Factor Xa (#1063-SE-010, R&D Systems) (UniProt P00742 41-488, limits assumed)
T6 sequence (P00742 41-488 limits assumed): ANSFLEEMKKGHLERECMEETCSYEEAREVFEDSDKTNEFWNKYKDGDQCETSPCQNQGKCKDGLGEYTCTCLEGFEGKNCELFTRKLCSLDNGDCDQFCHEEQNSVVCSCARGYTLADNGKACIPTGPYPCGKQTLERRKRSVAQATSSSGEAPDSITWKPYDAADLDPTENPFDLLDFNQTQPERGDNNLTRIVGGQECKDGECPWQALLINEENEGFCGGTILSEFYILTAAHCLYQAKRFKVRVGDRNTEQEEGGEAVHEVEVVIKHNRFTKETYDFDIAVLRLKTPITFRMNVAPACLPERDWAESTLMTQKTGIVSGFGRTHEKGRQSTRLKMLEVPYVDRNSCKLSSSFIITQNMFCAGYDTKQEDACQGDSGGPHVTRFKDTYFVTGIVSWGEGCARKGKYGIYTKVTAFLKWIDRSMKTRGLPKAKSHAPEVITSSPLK

[9] = target: T5, activated hepsin (#4776-SE-010, R&D …); remark: listed apart in the source
[10] = target: T7, recombinant thrombin (#1473-SE-010, R&D Systems) (UniProt P00734 44-622)
[11] = target: T2, recombinant N-terminal His-tag HGFA …; remark: listed apart in the source
[12] = target: T1, matriptase (#3946-SE-010, R&D Systems); remark: listed apart in the source
[13] = target: T6, Factor Xa (#1063-SE-010, R&D Systems); remark: listed apart in the source
[14] = target: T5, activated hepsin (#4776-SE-010, R&D …); remark: listed apart in the source
[15] = target: T7, recombinant thrombin (#1473-SE-010, R&D …); remark: listed apart in the source
[16] = target: T2, recombinant N-terminal His-tag HGFA …; remark: listed apart in the source

Binder | Calu-3 EC50 (human TMPRSS2 [1]) [nM] | Matriptase IC50 [2] [nM] | Hepsin IC50 [3] [nM] | HGFA IC50 [4] [nM] | KLK5 IC50 [5] [nM] | IC50, cell-based TMPRSS2 fluorogenic enzyme inhibition assay (human TMPRSS2 [6]) [nM] | Matriptase (IC50 nM) [7] [nM] | Factor Xa* (IC50 nM) [8] [nM] | Hepsin (IC50 nM) [9] [nM] | Thrombin* (IC50 nM) [10] [nM] | HGFA (IC50 nM) [11] [nM] | Matriptase IC50 [12] [nM] | Factor Xa IC50 [13] [nM] | Hepsin IC50 [14] [nM] | Thrombin IC50 [15] [nM] | HGFA IC50 [16] [nM]
B1 | 104 | 1.4 | 10 | 5260 | 193 | 6.9 | 0.28 | 564 | 8.4 | 700 | 3590 |  |  |  |  | 
X2-Leu-Arg-kbt [1-(ethylsulfonyl)piperidin-4-yl Leu-Arg-kbt carbamate (8h)] |  |  |  |  |  |  |  |  |  |  |  | 730 | > 20000 | 10 | > 20000 | > 20000
{phenyl(piperidin-4-yl)methyl carbamate}-Leu-Arg-kbt [phenyl(piperidin-4-yl)methyl Leu-Arg-kbt carbamate (11a)] |  |  |  |  |  |  |  |  |  |  |  | 1100 | > 20000 | 8 | > 20000 | 14000
Ac-SKLR-{kbt-Val-NH2} [Ac-SKLR kbt V-amide, ZFH7116] | 307 | 11 | 0.5 | 26 | 137 | 51 |  |  |  |  |  |  |  |  |  | 
